This note sets out measurements from the supplement of paper PMC5998384.

In series [1] the test system is HeLa Kyoto. The series can be described thus: thermal stability score vs G1/S (z-score of summed log2 fold changes over temperatures); higher = more thermally stable than in G1/S.
The test system of series [2] is HeLa Kyoto. The series can be described thus: melting temperature (median over replicates), in situ; higher = more thermally stable.
Where [3] appears, read: cell cycle stage: early G1 (4.5 h after nocodazole release).
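For melting temperature (median over replicates), in situ in this document: HeLa Kyoto cells synchronized by double thymidine or nocodazole block, proteins quantified by TMT10plex mass spectrometry, three independent biological replicates.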
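For thermal stability score vs G1/S (z-score of summed log2 fold changes over temperatures) in this document: synchronized HeLa Kyoto cells, proteins quantified by TMT10plex mass spectrometry, three biological replicates, mitosis taken 0.5 h after nocodazole release, G1/S directly after double thymidine block.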

GORASP1, sequence (chain, as listed by the source): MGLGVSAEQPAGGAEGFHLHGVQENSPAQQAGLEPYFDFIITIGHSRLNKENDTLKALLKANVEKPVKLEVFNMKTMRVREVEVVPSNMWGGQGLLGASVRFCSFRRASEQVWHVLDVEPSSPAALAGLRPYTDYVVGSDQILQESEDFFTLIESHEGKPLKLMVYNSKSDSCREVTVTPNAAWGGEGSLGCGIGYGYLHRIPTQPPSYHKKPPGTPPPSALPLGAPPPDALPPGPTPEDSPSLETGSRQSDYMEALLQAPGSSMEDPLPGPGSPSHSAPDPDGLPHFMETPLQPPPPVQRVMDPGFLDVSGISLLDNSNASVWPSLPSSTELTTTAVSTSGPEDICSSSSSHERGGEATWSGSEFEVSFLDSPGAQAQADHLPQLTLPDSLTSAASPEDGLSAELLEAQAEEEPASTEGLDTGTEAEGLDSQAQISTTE
MSRB2, sequence (chain, as listed by the source): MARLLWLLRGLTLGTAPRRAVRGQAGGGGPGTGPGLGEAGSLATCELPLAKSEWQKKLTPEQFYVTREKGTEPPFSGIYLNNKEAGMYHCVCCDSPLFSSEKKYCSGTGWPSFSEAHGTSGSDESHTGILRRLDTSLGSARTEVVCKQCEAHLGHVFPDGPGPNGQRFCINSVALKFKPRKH

As for DENND4B, the thermal stability score was -0.499 in series [1] (setting [3]) and -0.617 in series [1] (cell cycle stage: mitosis).

As for GORASP1, the thermal stability score was determined as 0.552 in series [1] (setting [3]) and 0.301 in series [1] (cell cycle stage: mitosis).

On to “MAAAEEGCSVGAEADRELEELLESALDDFDKAKPSPAPPSTTTAPDASGPQKRSPGDTAKDALFASQEKFFQELFDSELASQATAEFEKAMKELAEEEPHLVEQFQKLSEAAGRVGSDMTSQQEFTSCLKETLSGLAKNATDLQNSSMSEEELTKAMEGLGMDEGDGEGNILPIMQSIMQNLLSKDVLYPSLKEITEKYPEWLQSHRESLPPEQFEKYQEQHSVMCKICEQFEAETPTDSETTQKARFEMVLDLMQQLQDLGHPPKELAGEMPPGLNFDLDALNLSGPPGASGEQCLIM [G3V3G9|DCAF8]”, for which the figures for the thermal stability score in series [1] (setting [3]) and in series [1] (cell cycle stage: mitosis) were 0.212 and -1, respectively.

“MAGVSACIKYSMFTFNFLFWLCGILILALAIWVRVSNDSQAIFGSEDVGSSSYVAVDILIAVGAIIMILGFLGCCGAIKESRCMLLLFFIGLLLILLLQVATGILGAVFKSKSDRIVNETLYENTKLLSATGESEKQFQEAIIVFQEEFKCCGLVNGAADWGNNFQHYPELCACLDKQRPCQSYNGKQVYKETCISFIKDFLAKNLIIVIGISFGLAVIEILGLVFSMVLYCQIGNK [TSPAN8]”: the thermal stability score in series [1] (setting [3]) is 1.86; in series [1] (cell cycle stage: mitosis), -1.57.

Consider “MALSRVCWARSAVWGSAVTPGHFVTRRLQLGRSGLAWGAPRSSKLHLSPKADVKNLMSYVVTKTKAINGKYHRFLGRHFPRFYVLYTIFMKGLQMLWADAKKARRIKTNMWKHNIKFHQLPYREMEHLRQFRQDVTKCLFLGIISIPPFANYLVFLLMYLFPRQLLIRHFWTPKQQTDFLDIYHAFRKQSHPEIISYLEKVIPLISDAGLRWRLTDLCTKIQRGTHPAIHDILALRECFSNHPLGMNQLQALHVKALSRAMLLTSYLPPPLLRHRLKTHTTVIHQLDKALAKLGIGQLTAQEVKSACYLRGLNSTHIGEDRCRTWLGEWLQISCSLKEAELSLLLHNVVLLSTNYLGTRR [LETMD1]”, for which the thermal stability score is -0.886 in series [1] (setting [3]) and -0.884 in series [1] (cell cycle stage: mitosis).

Turning to “MAQRAVWLISHEPGTPLCGTVRFSRRYPTVEKRARVFNGASYVPVPEDGPFLKALLFELRLLDDDKDFVESRDSCSRINKTSIYGLLIGGEELWPVVAFLKNDMIYACVPLVEQTLSPRPPLISVSGVSQGFEFLFGIQDFLYSGQKNDSELNTKLSQLPDLLLQACPFGTLLDANLQNSLDNTNFASVTQPQKQPAWKTGTYKGKPQVSISITEKVKSMQYDKQGIADTWQVVGTVTCKCDLEGIMPNVTISLSLPTNGSPLQDILVHPCVTSLDSAILTSSSIDAMDDSAFSGPYKFPFTPPLESFNLCFYTSQVPVPPILGFYQMKEEEVQLRITINLKLHESVKNNFEFCEAHIPFYNRGPITHLEYKTSFGQLEVFREKSLLIWIIGQKFPKSMEISLSGTVTFGAKSHEKQPFDPICTGETAYLKLHFRILDYTLTGCYADQHSVQVFASGKPKISAHRKLISSDYYIWNSKAPAPVTYGSLLL [AP5M1]”, the thermal stability score is 2.33e-19 in series [1] (setting [3]) and -1.74e-18 in series [1] (cell cycle stage: mitosis).

For the substance “MEERERGARSAGAGSPARPPSPRLDVSSDSFDPLLALYAPRLPPIPYPNAPCFNNVAEYESFLRTGVRGGGRGRGRARGAAAGSGVPAAPGPSGRTRRRPDAPAPDPERIQRLRRLMVAKEEGDGAAGAGRRGPGRSRKAPRNVLTRMPLHEGSPLGELHRCIREGVKVNVHIRTFKGLRGVCTGFLVAFDKFWNMALTDVDETYRKPVLGKAYERDSSLTLTRLFDRLKLQDSSKKEADSKSAVEDSTLSRYSQTSTWKLASVWGRADTGRGSHKRSRSVPSSLQASAREESRSELSGRTTRTDGSSVGGTFSRATTLSRGQSRKKKRKPKVDYQQVFTRHINQIFIRGENVLLVHLAQ [LSM11]”, the thermal stability score in series [1] (setting [3]) was determined as 0.976; in series [1] (cell cycle stage: mitosis), 0.837.

On to “MGKNKLLHPSLVLLLLVLLPTDASVSGKPQYMVLVPSLLHTETTEKGCVLLSYLNETVTVSASLESVRGNRSLFTDLEAENDVLHCVAFAVPKSSSNEEVMFLTVQVKGPTQEFKKRTTVMVKNEDSLVFVQTDKSIYKPGQTVKFRVVSMDENFHPLNELIPLVYIQDPKGNRIAQWQSFQLEGGLKQFSFPLSSEPFQGSYKVVVQKKSGGRTEHPFTVEEFVLPKFEVQVTVPKIITILEEEMNVSVCGLYTYGKPVPGHVTVSICRKYSDASDCHGEDSQAFCEKFSGQLNSHGCFYQQVKTKVFQLKRKEYEMKLHTEAQIQEEGTVVELTGRQSSEITRTITKLSFVKVDSHFRQGIPFFGQVRLVDGKGVPIPNKVIFIRGNEANYYSNATTDEHGLVQFSINTTNVMGTSLTVRVNYKDRSPCYGYQWVSEEHEEAHHTAYLVFSPSKSFVHLEPMSHELPCGHTQTVQAHYILNGGTLLGLKKLSFYYLIMAKGGIVRTGTHGLLVKQEDMKGHFSISIPVKSDIAPVARLLIYAVLPTGDVIGDSAKYDVENCLANKVDLSFSPSQSLPASHAHLRVTAAPQSVCALRAVDQSVLLMKPDAELSASSVYNLLPEKDLTGFPGPLNDQDNEDCINRHNVYINGITYTPVSSTNEKDMYSFLEDMGLKAFTNSKIRKPKMCPQLQQYEMHGPEGLRVGFYESDVMGRGHARLVHVEEPHTETVRKYFPETWIWDLVVVNSAGVAEVGVTVPDTITEWKAGAFCLSEDAGLGISSTASLRAFQPFFVELTMPYSVIRGEAFTLKATVLNYLPKCIRVSVQLEASPAFLAVPVEKEQAPHCICANGRQTVSWAVTPKSLGNVNFTVSAEALESQELCGTEVPSVPEHGRKDTVIKPLLVEPEGLEKETTFNSLLCPSGGEVSEELSLKLPPNVVEESARASVSVLGDILGSAMQNTQNLLQMPYGCGEQNMVLFAPNIYVLDYLNETQQLTPEIKSKAIGYLNTGYQRQLNYKHYDGSYSTFGERYGRNQGNTWLTAFVLKTFAQARAYIFIDEAHITQALIWLSQRQKDNGCFRSSGSLLNNAIKGGVEDEVTLSAYITIALLEIPLTVTHPVVRNALFCLESAWKTAQEGDHGSHVYTKALLAYAFALAGNQDKRKEVLKSLNEEAVKKDNSVHWERPQKPKAPVGHFYEPQAPSAEVEMTSYVLLAYLTAQPAPTSEDLTSATNIVKWITKQQNAQGGFSSTQDTVVALHALSKYGAATFTRTGKAAQVTIQSSGTFSSKFQVDNNNRLLLQQVSLPELPGEYSMKVTGEGCVYLQTSLKYNILPEKEEFPFALGVQTLPQTCDEPKAHTSFQISLSVSYTGSRSASNMAIVDVKMVSGFIPLKPTVKMLERSNHVSRTEVSSNHVLIYLDKVSNQTLSLFFTVLQDVPVRDLKPAIVKVYDYYETDEFAIAEYNAPCSKDLGNA [A2M]”, for which the thermal stability score in series [1] (setting [3]) was -2.38; in series [1] (cell cycle stage: mitosis) it was -0.965.

On to “MLQQDSNDDTEDVSLFDAEEETTNRPRKAKIRHPVASFFHLFFRVSAIIVCLLCELLSSSFITCMVTIILLLSCDFWAVKNVTGRLMVGLRWWNHIDEDGKSHWVFESRKESSQENKTVSEAESRIFWLGLIACSVLWVIFAFSALFSFTVKWLRRSRHIAQTGLKVLGSRDPPASAFQSAGITGVSRCPGHPSRKFHQVDINSFTRITDRALYWKPAPRLSSPPLRAAPGNCQQMAPARLFLSLRLWAWRGGGESPNSRGTGEPGPKFHLASGMH [TVP23C]”, for which the melting temperature in series [2] (cell cycle stage: mitosis) is 56 °C.

In series [2] (cell cycle stage: mitosis), “MNILPKKSWHVRNKDNVARVRRDEAQAREEEKERERRVLLAQQEARTEFLRKKARHQNSLPELEAAEAGAPGSGPVDLFRELLEEGKGVIRGNKEYKEEKRQEKERQEKALGILTYLGQSAAEAQTQPPWYQLPPGRGGPPPGPAPDEKIKSRLDPLREMQKHLGKKRQHGGDEGSRSRKEKEGSEKQRPKEPPSLDQLRAERLRREAAERSRAEALLARVQGRALQEGQPEEDETDDRRRRYNSQFNPQLARRPRQQDPHLTH [LENG1]” had a melting temperature of 52.5 °C.

As for “MPFRLLIPLGLLCALLPQHHGAPGPDGSAPDPAHYRERVKAMFYHAYDSYLENAFPFDELRPLTCDGHDTWGSFSLTLIDALDTLLILGNVSEFQRVVEVLQDSVDFDIDVNASVFETNIRVVGGLLSAHLLSKKAGVEVEAGWPCSGPLLRMAEEAARKLLPAFQTPTGMPYGTVNLLHGVNPGETPVTCTAGIGTFIVEFATLSSLTGDPVFEDVARVALMRLWESRSDIGLVGNHIDVLTGKWVAQDAGIGAGVDSYFEYLVKGAILLQDKKLMAMFLEYNKAIRNYTRFDDWYLWVQMYKGTVSMPVFQSLEAYWPGLQSLIGDIDNAMRTFLNYYTVWKQFGGLPEFYNIPQGYTVEKREGYPLRPELIESAMYLYRATGDPTLLELGRDAVESIEKISKVECGFATIKDLRDHKLDNRMESFFLAETVKYLYLLFDPTNFIHNNGSTFDAVITPYGECILGAGGYIFNTEAHPIDPAALHCCQRLKEEQWEVEDLMREFYSLKRSRSKFQKNTVSSGPWEPPARPGTLFSPENHDQARERKPAKQKVPLLSCPSQPFTSKLALLGQVFLDSS [EDEM2]”, the melting temperature in series [2] (cell cycle stage: G1/S) was 55.3 °C.

Substance “MPSSLPGSQVPHPTLDAVDLVEKTLRNEGTSSSAPVLEEGDTDPWTLPQLKDTSQPWKELRVAGRLRRVAGSVLKACGLLGSLYFFICSLDVLSSAFQLLGSKVAGDIFKDNVVLSNPVAGLVIGVLVTALVQSSSTSSSIVVSMVAAKLLTVRVSVPIIMGVNVGTSITSTLVSMAQSGDRDEFQRAFSGSAVHGIFNWLTVLVLLPLESATALLERLSELALGAASLTPRAQAPDILKVLTKPLTHLIVQLDSDMIMSSATGNATNSSLIKHWCGTTGQPTQENSSCGAFGPCTEKNSTAPADRLPCRHLFAGTELTDLAVGCILLAGSLLVLCGCLVLIVKLLNSVLRGRVAQVVRTVINADFPFPLGWLGGYLAVLAGAGLTFALQSSSVFTAAVVPLMGVGVISLDRAYPLLLGSNIGTTTTALLAALASPADRMLSALQVALIHFFFNLAGILLWYLVPALRLPIPLARHFGVVTARYRWVAGVYLLLGFLLLPLAAFGLSLAGGMELAAVGGPLVGLVLLVILVTVLQRRRPAWLPVRLRSWAWLPVWLHSLEPWDRLVTRCCPCNVCSPPKATTKEAYCYENPEILASQQL [SLC34A3]” came in with a melting temperature in series [2] (cell cycle stage: mitosis) of 57.5 °C.

Regarding “MQFMLLFSRQGKLRLQKWYVPLSDKEKKKITRELVQTVLARKPKMCSFLEWRDLKIVYKRYASLYFCCAIEDQDNELITLEIIHRYVELLDKYFGSVCELDIIFNFEKAYFILDEFLLGGEVQETSKKNVLKAIEQADLLQEEAETPRSVLEEIGLT [AP1S2]”, the melting temperature in series [2] (cell cycle stage: mitosis) is 49.7 °C.

“MRWRTILLQYCFLLITCLLTALEAVPIDIDKTKVQNIHPVESAKIEPPDTGLYYDEYLKQVIDVLETDKHFREKLQKADIEEIKSGRLSKELDLVSHHVRTKLDELKRQEVGRLRMLIKAKLDSLQDIGMDHQALLKQFDHLNHLNPDKFESTDLDMLIKAATSDLEHYDKTRHEEFKKYEMMKEHERREYLKTLNEEKRKEEESKFEEMKKKHENHPKVNHPGSKDQLKEVWEETDGLDPNDFDPKTFFKLHDVNSDGFLDEQELEALFTKELEKVYDPKNEEDDMVEMEEERLRMREHVMNEVDTNKDRLVTLEEFLKATEKKEFLEPDSWETLDQQQFFTEEELKEYENIIALQENELKKKADELQKQKEELQRQHDQLEAQKLEYHQVIQQMEQKKLQQGIPPSGPAGELKFEPHI [NUCB2]”: the melting temperature in series [2] (cell cycle stage: G1/S) was 55.5 °C; in series [2] (cell cycle stage: mitosis), 56.9 °C.

Turning to “MSKRNQVSYVRPAEPAFLARFKERVGYREGPTVETKRIQPQPPDEDGDHSDKEDEQPQVVVLKKGDLSVEEVMKIKAEIKAAKADEEPTPADGRIIYRKPVKHPSDEKYSGLTASSKKKKPNEDEVNQDSVKKNSQKQIKNSSLLSFDNEDENE [KIAA1143]”, the melting temperature in series [2] (cell cycle stage: mitosis) came out at 52 °C.

Turning to MSRB2, the melting temperature in series [2] (cell cycle stage: G1/S) is 52.4 °C; in series [2] (cell cycle stage: mitosis) it was 52.6 °C.

In turn, “MWSRLVWLGLRAPLGGRQGFTSKADPQGSGRITAAVIEHLERLALVDFGSREAVARLEKAIAFADRLRAVDTDGVEPMESVLEDRCLYLRSDNVVEGNCADELLQNSHRVVEEYFVAPPGNISLPKLDEQEPFPHS [GATC]” gave a melting temperature in series [2] (cell cycle stage: G1/S) of 51.7 °C.
